In general, EC50 refers to the concentration giving half of the maximal effect.

Binding result and EC50 data for five molecules are collected here from patent publication US20230406936A1 (IMMUNOURCHIN, published 2023).

Assay [1] addresses T1, native form of secretory sPD-L1-3, in culture supernatant of transfected MC38 cells (human, UniProt Q9NZQ7 19-178).
T1 construct: Untagged, secreted by MC38 cells; also called sPD-L1-3/12
Nature of the assay: indirect (sandwich) ELISA: antibody coated, MC38 culture supernatant with sPD-L1-3. A general note: An ELISA detects its analyte on a solid surface through an enzyme-linked reagent.

The target of assay [2] is T2, recombinant PD-L1-3-HIS (secretory splice variant PD-L1-3 with HIS tag, from HEK293 cells) (human, UniProt Q9NZQ7 19-178).
T2 construct: The range 19-178 comes from the background paragraph; also called rPD-L1-3-HIS; sPD-L1-3-HIS; not shown: HIS tag
T2 sequence (Q9NZQ7 19-178, change not shown): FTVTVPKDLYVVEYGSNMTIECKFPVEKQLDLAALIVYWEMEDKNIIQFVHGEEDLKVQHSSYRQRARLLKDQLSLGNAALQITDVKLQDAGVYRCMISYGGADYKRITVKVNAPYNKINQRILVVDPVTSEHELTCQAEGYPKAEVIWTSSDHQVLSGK
Kind of assay: direct ELISA, 50 ng/well rPD-L1-3-HIS coated.

For assay [3], the target named is T3, human PD-L1 (membrane-bound type), expressed on MC38 / CHO-K1 cells (human, UniProt Q9NZQ7 19-290).
T3 construct: Full-length gene transfected into MC38 and CHO-K1 cells; also called hPD-L1
T3 sequence (Q9NZQ7 19-290): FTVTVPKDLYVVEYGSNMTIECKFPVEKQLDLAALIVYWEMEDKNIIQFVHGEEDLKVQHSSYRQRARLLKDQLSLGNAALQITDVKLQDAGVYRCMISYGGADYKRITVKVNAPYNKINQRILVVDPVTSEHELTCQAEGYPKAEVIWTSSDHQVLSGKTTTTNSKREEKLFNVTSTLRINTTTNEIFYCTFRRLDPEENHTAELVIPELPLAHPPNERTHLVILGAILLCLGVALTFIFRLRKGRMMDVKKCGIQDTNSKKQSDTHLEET
Kind of assay: flow cytometry on MC38 cells expressing hPD-L1. As for the experimental part: (§1) MC38/CHO-K1 cells expressing either PD-L1 or pan IgC were used as positive detection cells. MC38/CHO-K1 wild type cells and PD-L2-expressed MC38/CHO-K1 cells were used as negative control. About 1×10⁵ negative and positive cells were stained with either sera from immunized mice (1:100, 1:1000, 1:10000 dilutions) or culture supernatant (50 μl) from hybridoma, or mouse monoclonal antibody (concentrations as indicated in the figures), or other humanized antibodies (concentrations as indicated in the figures), and incubated at 4° C. for 15 min. After washed with PBS, the cells were stained with a PE conjugated goat anti mouse IgG (BD biosciences) and incubated in dark place at 4° C. for 15 min. After washed with PBS, the stained cells were analyzed by a flow cytometry (NovoCyte, Acebio, Hangzhou).
(§2) MC38 cells expressing either hPD-L1 or pan-IgC were used as positive detection cells, whereas, both hPD-L2 expressed and parental MC38 cells were used as negative detection cells.
(§3) 50 μl/well of hybridoma culture supernatant or 100 ng/well mouse monoclonal antibody were mixed with 1×10 5 of either positive or negative detection cells at 4° C. for 15 min. After washed with PBS, the cells were stained with a PE conjugated goat anti mouse antibody (BD biosciences) at 4° C. for 15 min in dark place.
(In general: Flow cytometry measures light scatter and fluorescence of single cells or particles in a stream.)

The target in assay [4] is T4, pan IgC segment of human PD-L1, expressed on MC38 / CHO-K1 cells (human, UniProt Q9NZQ7 132-238).
T4 construct: also called PD-L1-pan-IgC; hPD-L1 pan-IgC segment
T4 sequence (Q9NZQ7 132-238): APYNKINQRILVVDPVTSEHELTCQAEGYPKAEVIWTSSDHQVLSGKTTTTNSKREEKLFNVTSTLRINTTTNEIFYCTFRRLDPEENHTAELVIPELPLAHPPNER
Nature of the assay: flow cytometry on cells expressing pan IgC. As to the method: as §1, §2, §3

Assay [5] deals with T4, pan IgC segment of human PD-L1, …. Nature of the assay: flow cytometry on cells with pan-IgC.
Assay [6] concerns the target T5, human CD80 (membrane-bound type), on cells (human, UniProt P33681 35-288).
T5 construct: whole, on cells
T5 sequence (looked up): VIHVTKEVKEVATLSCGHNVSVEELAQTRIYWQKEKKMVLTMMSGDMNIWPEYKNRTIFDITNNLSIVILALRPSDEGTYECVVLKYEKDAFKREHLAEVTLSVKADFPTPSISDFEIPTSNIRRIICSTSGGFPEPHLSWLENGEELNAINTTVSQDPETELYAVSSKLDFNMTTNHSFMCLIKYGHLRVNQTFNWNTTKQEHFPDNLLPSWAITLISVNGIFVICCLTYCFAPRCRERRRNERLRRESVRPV
Kind of assay: flow cytometry on cells with membrane-bound human CD80.
From the text: FIG. 10. […] C. CHO-K1 parental cells were used as a negative control. Clone #2D10: human CD80 mouse monoclonal antibody (Elabscience, Wuhan). 2nd antibody: PE labeled goat anti-mouse antibody (BD Biosciences)
as §1

Assay [7] concerns the target T6, human PD-L2 (membrane-bound type), expressed on CHO-K1 cells (human, UniProt Q9BQ51 20-273).
T6 construct: whole, on cells; also called hPD-L2
T6 sequence (looked up): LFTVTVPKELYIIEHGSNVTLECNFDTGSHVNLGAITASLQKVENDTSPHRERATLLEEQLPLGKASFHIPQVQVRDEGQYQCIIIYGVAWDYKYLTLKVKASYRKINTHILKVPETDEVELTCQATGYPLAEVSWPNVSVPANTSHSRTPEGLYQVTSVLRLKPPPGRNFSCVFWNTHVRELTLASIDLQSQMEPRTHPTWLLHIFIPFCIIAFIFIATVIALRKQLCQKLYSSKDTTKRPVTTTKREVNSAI
Kind of assay: flow cytometry on cells with membrane-bound human PD-L2.

Assay [8] concerns the target T6, human PD-L2 (membrane-bound type), …. Kind of assay: flow cytometry on cells with membrane-bound human PD-L2; the antibody also bound the CHO-K1 parental cells.
The target of assay [9] is T1, native form of secretory sPD-L1-3, in …. Nature of the assay: ELISA with MC38 culture supernatant containing native sPD-L1-3.
The target in assay [10] is T3, human PD-L1 (membrane-bound type), …. Kind of assay: flow cytometry on cells with membrane-bound PD-L1.

T1 sequence (Q9NZQ7 19-178): as the sequence (Q9NZQ7 19-178, change not shown) above

B1: PD-L1 mouse monoclonal antibody #19 (antibody, mouse IgG2b, V domains shown)
VH: EVQLQQSGPELVKPGASVKISCKASGSAFSSSWMNWLKQRPGQGLEWIGRIYPGDGDTNYNGKFKGKATLTADKSSSTAYMQLSSLTSVDSAVYFCARRRANHYGSNWYFDVWGAGTTVTVSS
VL: NIVLTQSPASLAVSLGQRATISCRASESVDSYGKSFMHWYQQKPGQPPKLLIYLASNLESGVPARFSGSGSRTDFTLTIDPVEADDAATYYCQQNNEDPYTFGGGTKLEIK
notes: also called mAb #19; Ab #19
Consider B1, for which the binding result is listed as “no binding (tested: 0.2 µg/well coated antibody)” in assay [1], “no binding (tested: 100 ng/100 µl/well)” in [2], “binds” in [3] and “binds” in assay [4].

B2: humanized PD-L1 antibody H6L5 (VH6 + VL5) (antibody, V domains shown)
VH: EVQLQQSGAEVKKPGSSVKVSCKASGSAFSSSWMNWLKQRPGQGLEWIGRIYPGDGDTNYNGKFKGRVTLTADKSSSTAYMQLSSLRSEDTAVYFCARRRANHYGSNWYFDVWGAGTTVTVSS
VL: NIVLTQSPASLSASVGDRVTISCRASESVDSYGKSFMHWYQQKPGQPPKLLIYLASNLESGVPARFSGSGSRTDFTLTIDSLQPEDFATYYCQQNNEDPYTFGGGTKLEIK
Regarding B2, the figures for the binding result in assay [5], in [6] and in assay [7] were “binds”, “no binding” and “no binding”, respectively.

B3: humanized PD-L1 antibody H5L4 (VH5 + VL4) (antibody, V domains shown)
VH: EVQLVQSGAEVKKPGASVKVSCKASGSAFSSSWMNWLRQRPGQGLEWIGRIYPGDGDTNYNGKFKGRVTLTADKSISTAYMELSRLRSVDTAVYFCARRRANHYGSNWYFDVWGAGTTVTVSS
VL: NIVLTQSPASLSASVGDRVTISCRASESVDSYGKSFMHWYQQKPGQPPKLLIYLASNLESGVPARFSGSGSRTDFTLTISSLQPEDFATYYCQQNNEDPYTFGGGTKLEIK
With B3, the binding result in [8] was “binds”.

B4: humanized PD-L1 antibody H4L4 (VH4 + VL4) (antibody, V domains shown)
VH: EVQLVQSGAEVKKPGSSVKVSCKASGSAFSSSWMNWLRQRPGQGLEWIGRIYPGDGDTNYNGKFKGRVTLTADKSSSTAYMELSSLRSVDTAVYFCARRRANHYGSNWYFDVWGAGTTVTVSS
VL: NIVLTQSPASLSASVGDRVTISCRASESVDSYGKSFMHWYQQKPGQPPKLLIYLASNLESGVPARFSGSGSRTDFTLTISSLQPEDFATYYCQQNNEDPYTFGGGTKLEIK
Consider B4, for which, in assay [5], the binding result was “binds”.

B5: humanized PD-L1 antibody H6L2 (humanized mouse monoclonal antibody #19, VH6 + VL2) (antibody, V domains shown)
VH: EVQLQQSGAEVKKPGSSVKVSCKASGSAFSSSWMNWLKQRPGQGLEWIGRIYPGDGDTNYNGKFKGRVTLTADKSSSTAYMQLSSLRSEDTAVYFCARRRANHYGSNWYFDVWGAGTTVTVSS
VL: NIVLTQSPSSLSASVGDRVTITCRASESVDSYGKSFMHWYQQKPGQPPKLLIYLASNLESGVPSRFSGSGSRTDFTLTISSLQPEDFATYYCQQNNEDPYTFGGGTKLEIK
notes: also called humanized antibody H6L2; humanized antibody #19
Regarding B5, the binding result in [9], in assay [6] and in [7] was “no binding” each time. In assay [10], the EC50 came to 0.62 µg/mL.
